Assay results as given in the supplement of paper PMC12042874.
± gives the uncertainty stated by the source.

Experiment: amyloid nucleation score (Sup35N fusion, yeast selection) (log enrichment); library NNK1; higher = more nucleation; inactive = no reads after selection
Outline: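 The nucleation score is the log enrichment of output over input reads, calculated with DiMSum and centred on the mode score of non-aggregating sequences. Sequences with under 100 input reads were excluded. Reads came from Illumina sequencing of plasmid inserts from psi-negative yeast expressing Sup35N fused to peptides of 20 random codons, induced 24 hours with 100 μM copper sulfate and grown 7 days at 30°C without adenine and uracil.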
Work on YKGNKCCVKMMACWGTGCLP yielded an amyloid nucleation score of 1.98 ± 0.37. Substance AEWVYITMGYAWLKRSNVVE has an amyloid nucleation score of 0.092 ± 0.33. With DIPIDIWSYPQHGRFS the amyloid nucleation score was -0.814 ± 0.79. Work on GCRTLHGGAVDKLYTWCHLA yielded an amyloid nucleation score of 0.504 ± 0.92. HWIMAMFMSPPANTHDEAEI gave an amyloid nucleation score of 2.45 ± 0.15. With APLALSGRVCFWSWFCPLFV the amyloid nucleation score was 5.76 ± 0.084. In the case of GSSAFRINLFFLSIVGYRRS, the amyloid nucleation score is reported as 5.61 ± 0.062. LKAHPSVTSCPVRSLI gave an amyloid nucleation score of -0.281 ± 0.39. For IRDNDDLLWMEGRSWKWSRR, the amyloid nucleation score was 0.27 ± 0.29. For GLNDYIKVFLYFDSVNRYLD, the amyloid nucleation score was -0.694 ± 1.1. RGSTLSGVYCAENRASGFDS gave an amyloid nucleation score of 0.93 ± 0.33. Work on RQLFIGGAPDLC yielded an amyloid nucleation score of 0.216 ± 0.59. With ANSYARCYNLVWKLV the amyloid nucleation score was -0.291 ± 0.66. In the case of NLRLAWRGQTVCRETHKRPF, the amyloid nucleation score is reported as 2.37 ± 0.13. In the case of LPDTCCR, the amyloid nucleation score is reported as 0.994 ± 0.46. Work on ILATMQFLCQMGSERNQARA yielded an amyloid nucleation score of 0.454 ± 0.26. GVLNVL showed an amyloid nucleation score of -0.418 ± 0.62. STFSLTSRASHKVPQDRYFP gave an amyloid nucleation score of 0.353 ± 0.61. SAYSKILSLPVRMGVWVAHI showed an amyloid nucleation score of 0.658 ± 0.42. In the case of VLSPFTVKIDIKSKISVLGP, the amyloid nucleation score is reported as 4.11 ± 0.15. In the case of FGKFKRRRGMSKMNRMEITK, the amyloid nucleation score is reported as -0.841 ± 1.5. VLGMAEATADFSPIWVSKCS showed an amyloid nucleation score of 0.455 ± 1.4. With VQDVYENFSSPQNIGVMRAS the amyloid nucleation score was 0.956 ± 0.81. TGRRIVGYDCLNRSCMYICV showed an amyloid nucleation score of -0.321 ± 0.25. Work on YLPYVSLQSVHWIMVGWLN yielded an amyloid nucleation score of -0.163 ± 0.8. For NCKNVYCFKYASGIGERAFY, the amyloid nucleation score was 0.091 ± 0.42. TNFLKSFHV showed an amyloid nucleation score of -1.95 ± 1.8. PGWYFDTGSAPLQVSRRSGL gave an amyloid nucleation score of 0.66 ± 0.63. With DNLSIWGL the amyloid nucleation score was -0.629 ± 0.89. With DSLSGSICGFRLYALLFTLT the amyloid nucleation score was -0.113 ± 0.53. IIRRGSRSFYIFMVTFKRRN showed an amyloid nucleation score of 0.996 ± 0.52. Work on MYPRSCIHVMCFTVVKASVG yielded an amyloid nucleation score of -1.26 ± 0.74. With TRLHRSQYSLSQSYNRTRKM the amyloid nucleation score was 0.39 ± 1.2. Work on NTMPSGWNRYTVYG yielded an amyloid nucleation score of -0.634 ± 0.44. For RSSSCKWV, the amyloid nucleation score was -0.53 ± 0.75. SQRTWCLLGIGSTITRIHFG gave an amyloid nucleation score of 2.74 ± 0.23. With SACFMMGLDDWCDSR the amyloid nucleation score was -0.529 ± 0.35. Substance SLGKLYAGDGVCMGTLPDSK has an amyloid nucleation score of 0.017 ± 0.56. Work on TLDWLMSIFLILVSLAFNGL yielded an amyloid nucleation score of -0.14 ± 0.33. In the case of DSRVKRY, the amyloid nucleation score is reported as “inactive”. With FIRGDANSLLHYLSDCVRE the amyloid nucleation score was 1.37 ± 0.9. With WVRNSLCRQIRRSANHQSGA the amyloid nucleation score was “inactive”. In the case of RTTFA, the amyloid nucleation score is reported as 0.38 ± 0.33. RSQKLGHIGRDTLQWGLYCS gave an amyloid nucleation score of -0.024 ± 0.38. In the case of YNKCLCAVLSRMFTGWHISA, the amyloid nucleation score is reported as 0.795 ± 0.88. In the case of IGFFPQDSYGFGLRTEINGL, the amyloid nucleation score is reported as 0.145 ± 0.69. Substance SVDGL has an amyloid nucleation score of -0.763 ± 0.2. Substance ERSYSNWAMG has an amyloid nucleation score of 0.958 ± 0.74. In the case of TTFFSGIYKKASLFYRHFVL, the amyloid nucleation score is reported as -0.812 ± 0.28. KRALQDRMLLEP gave an amyloid nucleation score of -0.286 ± 1. NACIQVTGRCCIACVVEFWY showed an amyloid nucleation score of 1.32 ± 0.38. Work on ESIFFMTDTRSISLCST yielded an amyloid nucleation score of -0.04 ± 0.27. IKISHACATMRQSGGFYVLK showed an amyloid nucleation score of -0.511 ± 0.39. For VGCVWAQEDRVPT, the amyloid nucleation score was -0.715 ± 0.83. In the case of VNSVWNGNR, the amyloid nucleation score is reported as -0.218 ± 0.71. For GISWSRGWSAFLKCDRRTGC, the amyloid nucleation score was 0.894 ± 0.8. In the case of VSCSDSMAFPSKSCF, the amyloid nucleation score is reported as 0.712 ± 0.34. With VKGVVYAGH the amyloid nucleation score was -1.44 ± 1.8. With FGGWVSLRSQKCMRPWRLGG the amyloid nucleation score was -1.22 ± 1.4. AVVHSRYRVSVCGDQDLSPL gave an amyloid nucleation score of -0.086 ± 0.41. Work on QFFLNTRLSLFALYL yielded an amyloid nucleation score of 5.35 ± 0.059. Work on NMSGMVLGLVLTATWSFMSV yielded an amyloid nucleation score of 0.588 ± 0.45. With TGPVLTPKSCYFGHINSSCF the amyloid nucleation score was -0.009 ± 0.29. In the case of TSSTRILISTTELVRNYCYC, the amyloid nucleation score is reported as 1.37 ± 0.26. In the case of VLMMVLGRWDTSSVMFIMMV, the amyloid nucleation score is reported as 0.343 ± 0.97. For SFVVTAEPSRAMNYSCFWKR, the amyloid nucleation score was “inactive”. For LSMGLR, the amyloid nucleation score was 0.388 ± 0.68. FWNINSSFFGLTNDTLVPNF gave an amyloid nucleation score of 0.79 ± 0.22. With RLFPYQFM the amyloid nucleation score was -0.286 ± 0.63. FILCMLMVSAGLFEQEALRY gave an amyloid nucleation score of 0.506 ± 0.24.
